We go through 22 sequences from the DeepSol protein solubility set.

A short description of this data set: soluble on expression in E. coli; label from the status in PepcDB or PDB records.
Take “MAHHHHHHMDNLFYYMIIQNDRIQPIIVRQPQTVIIHSQPKLPITLDLPPQNIILKNEDPQPIIVRQSNPNIIIEKSQNDFYNHPNFHIGLHDKVNSMSDINNTNIKEQPIKDNMIEDMQNINNADTQFYYNNQNVINENNVLPTHYSYLNNGVFNKEHNYDPYNFTLYSNK”: the “soluble on expression in E. coli” value is on record as “not soluble”.

Regarding “CLEDILSATKMVINLCLPQFRPRIHCNKISADGYEVENLISEDLTKRSHGFRTEYFIKPPVYVTVSFPFNVEICRINIDLTAGGGQNVTGLEMYTSASSSRVSWNTPQCRTLGPAEPSVPDKEAFTLVGKVLLKNQSQVVFSHRGFKARPPFGAMEATLPSPAVVAQELWNKGALSLSHVAHLRICITHVTGGGIPCIKRLEVWGQPAKTCSQEVIDSILLVTSENLPQDVALQAPALPMESDCDPGDQPESQQAPSSLQKLAEIIQDVPEEFLDPITLEIMPCPMLLPSGKVIDQSTLEKCNRSEATWGRVPSDPFTGVAFTPHSQPLPHPSLKARIDHFLLQHSIPGCHLLGRAQTALAVIPSSIVLPSQKRKIEQAEHVPDSNFGVNASCFSATSPLVLPTTSEHTAKKMKATNEPSLTHMDCSTGPLSHEQKLSQSLEIALASTLGSMPSFTARLTRGQLQHLGTRGSNTSWRPGTGSEQPGSILGPECASCKRVFSPYFKKEPVYQLPCGHLLCRPCLGEKQRSLPMTCTACQRPVASQDVLRVHF”, the “soluble on expression in E. coli” value is on record as “soluble”.

In the case of “MWQLKKEQNVPIYRSIMEMIVQKIQTGELLPGEKIPSERKLAEYLSVNRSTVVHALDELVDLGWIVRKRGSGTIVNEGKWGVMMTPRTDWHRYLEQNVFKQVHPLVTEIELRAKQNLPTDLDMYTGELPLDLIPSFDFPALNWKQFLKEEAQDELGYLPLRKEIQAITATEYQLHLPSESLLLTSGAQQALFLVLQVLLRQGDSVAVEDPSFFYALPIFQAAGVRLFGVPMTEEGIDLEALEQTIRQHRIKMVMVNPSFQNPTGTVMPLRKREQLVKVCQTYQVPILEDDVFGQLSFIPKTEIPPLKKLDPDNVLYIGSLSKILGSTTKIGWLSAPASVTKQIAEARKMMDVSLSIFPQMLAKMAIEDPSFSEKITLLNKQVEQRATAVYQVFKSLSEWEVSPVKGGFYLWAHWRQGALKPEDWQVFLREGVLVAPSVAFSEKRGSIRLNCSRISPEEMPLFCERMVRITRQLSENRQTKIEQ”, the “soluble on expression in E. coli” value is recorded as “not soluble”.

On to “MTWNPLALATALQTVPEQNIDVTNSENALIIKMNDYGDLQINILFTSRQMIIETFICPVSSISNPDEFNTFLLRNQKMMPLSSVGISSVQQEEYYIVFGALSLKSSLEDILLEITSLVDNALDLAEITEEYSHLEHHHHHH”, for which the “soluble on expression in E. coli” value was “soluble”.

As for “MKTALESLRNASALYNEKLVKLMKSFGMTIAEHRLLLLIESGLDTQEKISLATKLDTSTLSRQLKSAVRKELLDKLATGRDKRQLIYSVTEKGQSDLKGIAAELARIDANVFSDWNQNDRALLDQLLDKLEKSI”, the “soluble on expression in E. coli” value was “not soluble”.

For the sequence “GHMSGFKHVSHVGWDPQNGFDVNNLDPDLRSLFSRAGISEAQLTDAETSKLIYDFIEDQGGLEAVRQEMRRQ”, the “soluble on expression in E. coli” value is given as “soluble”.

Regarding “MATTKLSATKSTSRAINYAEKRAVEKSGLNCDVDYAKSSFKAARELYGKTDGNQGHVIIQSFQPGEVTPEQCNQLGLALAEKLVPNHQVAVYTHADTNHVHNHIVLNSIDLNTGKKFNNNKQALRDVRAFNDEVCRAQGLSVPEKDTARLRYTQTEKAIADPNTTSTAQYSWKDDIREAIDQSTATNMEEFQKHLNQHGITIERVTPKSITYRHLAENKKVRGRKLGEDYNKGGIQHGFERQIQRRQQQKHKSDTNFQPKRSTSNRHESTERDTGVTQSDWDQFAQDTNELERRRQAAESARLVDEKARRDREKRVREKPTSRPIINIDRDHGLEL”, the “soluble on expression in E. coli” value is recorded as “not soluble”.

With “MDWSHYRFRSLWALPAPPARVYAALERVEDYPRWWPQVREVTRLDEDCGVIRIRSLLPYDMTFTARDVRHDTAAGILEITMTGDIDGWARWTVTAGGPGTLARYDQEVDVRKPLLRRFAVPGRPVFRANHALMMRAGQRGLLAHLDGLEHHHHHH”, the “soluble on expression in E. coli” value is on record as “not soluble”.

Turning to “GPGSMSMNVYKRQEKLRLYRALLKGANRFPLRSRREIVTEEVRGAFRHPLNDSLTTKEVDYKLLLGWERAAAIQTYAENMYWFHSRDEVSREMMHHSLERDRQRIREMERCNAVGNAEIKTPEVTEFKSSMYHVHPDYHGKIGQMPLTHSRDIWRARGQYGSDVGGPRQKFYVRRFKALFPQGW”, the “soluble on expression in E. coli” value is “not soluble”.

“SVDYVFNKVMQPHQQMRIRVALGIEDDLRGGGYNVDQSKIAIGSGGFMGKGFLKGTQTKLKYVPEQDTDFIFCTVGEEQG”: the “soluble on expression in E. coli” value was “not soluble”.

In the case of “MFNQTQTVTYPATFLGAKKFKGEIDGSNIDTCSVLVATPLPAQSGNAVGFTAAQMKFGDSKNFSKLENLKYPCEVMVTVEMTSTGKGMVPSLIDFQVAEKPKG”, the “soluble on expression in E. coli” value is given as “not soluble”.

In the case of “MSLETLRIANRMLGYAAYEWRLSSLDGQKVMSSSGICLEVDTCLADERRYVSGENRPEMAIICSGIDVDQHVNKSVNAWLREAYNRGIAIGSLCTAAHILAQAGLLNGKRCAIHWENLPGFSEAFPQVEVYADLFEVDSNIYTCAGGTASLDMMLSLIGQDFGENLVNRVCEQQLTDRVREGHHHHHH”, the “soluble on expression in E. coli” value was “not soluble”.

Regarding “MGSDKIHHHHHHMNKNQYPKWEELPELDLYLDQVLLYVNQLINPKTITNDKLLTASMINNYVKHNYISKPIKKKYNRRQVARLIVITAFKQVFAIQEISQTLELLTADNHSEEAYNGFAACMNKEEVHDLPPVVISACQTLNLYQETQKLVLELGGKNKNA”, the “soluble on expression in E. coli” value was “not soluble”.

For “MSLNAHLSAAWPVPVSVAPDALAEIQADFSREWLRLCDEAKRGVLGAPADKRFAGAAWLDDRQRLLMAHAYLLSARAMARLVEAAQVSEPMRNRLRFSVMQWVDAMSPANFLAFNPDAQRAIVESAGRTLQEGMANLLNDIQRGRISQTDETQFEIGRNVATTPGHVVFENSLMQLIQYAPQTAKVCERPLVIVPPNINKYYILDLQPENSFVRYAVEQGHTVFIISWRNPLAADTDGVDTATWSEYLDDAVLKALAVASDISGQPQVNALGFCVGGTMLASALALAQARGERPVASLTLLTSLLDFHDTGILKVFVDEAHALLRDHQYGQRGLMPARDLATTFSFLRPNELVWNYVVSNYLKGKTPPAFDLLFWNADSTNLPGPFFAWYFRNTYLENNLKVPGRARAAGVPLDLTRLDMPAYLYGSREDHIVPWPSAYASTQLLRGPMRFVLGASGHIAGVINPPAKQRRSYWVNESAGEGHHHHHH”, the “soluble on expression in E. coli” value was “not soluble”.

Take “MGHHHHHHSHCDKCEGRGGKKGAVECCPNCRGTGMQIRIHQIGPGMVQQIQSVCMECQGHGERISPKDRCKSCNGR”: the “soluble on expression in E. coli” value was “soluble”.

Turning to “MSLNKEFIMKFSLKSLLTIAAAASTLILAGCGEKAVDNNKVKIGVMAGAEAQVAEVAAKVAKEKYNLDVELVTFTDYVTPNAALDDGSIDANAFQHKPYLDKQIADRGYKLAIVGNTFVYPIAGYSKQIKSVDELQDGARIAVPNDPTNLGRSLLLLQQQGLLKLREDVGLLATVRDIVENPKKLEILELDAAQLPRSLDDVALSIINTTYASSINLTPEKDGIFVENKESPYVNILVAREANVNAENVQNFKKAYQTDEVAKAASEIFQGGAVKGWEGGSHHHHHH”, the “soluble on expression in E. coli” value is recorded as “soluble”.

On to “MNESVDTDEATTPLVSAIIPTYGRNERLSSAIQSVLEQTYDNIELFVVDDASPTPVRETLDSFDPTVENSFRILRHDENQGANAARNTGIRASDGRYVAFLDDDDQWDETKITKQVQAFQESDSETGVVYTGVRKDGPEGTTVSTPVASGDVMKDLLTGTNFGQFSSVMVDTTVIETAGLPDERLPAWQDREWFFRLAQHTHFRPVRETLTYRQTGLPGSITKKYEQKRDVAYPMLISKHDWVAAEYGIYYERMFKATMRRSLARSAVRADRYKEARKYFLLSALANPLYWPVYPHLFASLGGKWSYESIASLRQQVTNGPASGT”, for which the “soluble on expression in E. coli” value was “not soluble”.

Consider “MADIAILVAEEYERRMKHTTVGSRSSPVEFDWWKIIPAKMTIAFDKMKIESLKKNFEAKSEFALAISHGFFSA”, for which the “soluble on expression in E. coli” value is reported as “not soluble”.

As for “MGSDKIHHHHHHMTQEQTRPKHMAAGETPEQHAAFEARIARGEKIEPGDWMPAEYRRQLIRMISQHAHSEVVGMLPEGEWIARAPSLKRKTILMAKVQDEAGHGQYLYHAAETLGVTREEMLDALLTRKAKYSSIFNYPTLTWADVGMIGWLVDGAAIKNQTMLAGCSYGPYSRAMVRICSEETFHHKQGKEMMVLYAQGTPEQRQMAQDALNRWWWPAVQMLGPHDSDSPNTGALSKWGIKLKTNDEVRQEFINEHVPELLEAGLTIPDPDLHQDEAGNWVHGPIDWSEFWAVIKGEQGLGNERLATRQAAQDEGAWVREALEAYMARQAKGEAAD”, the “soluble on expression in E. coli” value is reported as “not soluble”.

For the sequence “MSLAAVPAPDPGPDAGAIWHYGDPLGEQRAGQADAVLVDRSHRAVLTLDGGDRQTWLHSISTQHVSDLPEGASTQNLSLDGQGRVEDHWIQTELGGTTYLDTEPWRGEPLLAYLRKMVFWSMVTPRAADMAVLSLLGPRLAEERVLDALGLDVLPAEWLAVPLAGGGIVRRMPDGLAGQIELDVVVKRGDRADWQRRLTQAGVRPAGIWAYEAHRVAHRVPARRPRLGVDTDERTIPHEVGWIGGPGAGAVHLNKGCYRGQETVARVHNLGRPPRMLVLLHLDESVQRPSTGDAVLAGGRTVGRLGTVVEHVELGPVALALLKRGLPGDTALVTGPEAEVAAVIDVDSLPPADDVGAGRRAVERLRGGIREGHHHHHH”, the “soluble on expression in E. coli” value was “soluble”.

For “MENWYPCIICGIARYGHDVIATPRLTSDARVNQWLNLIGKPALNRILATNKNPTLNTFICIEHFEPEELIEPKKRRMKPIKTTRREMAIYENYFRDHGYFETQKSDVNRKKSMKLTSISCSQCSESVERDGKFAKIDMVDHAKLHMELGDCRCEKHKKIERIDRIDGENSDFQCSECAFILNAELEAVKEKAEFCFPMFQFEKSKFSNSTLEPRMKPEYIESRPFWNSEEYDPVFLDSDVKFDLIEDFEPPEPEPEPEQVDTELVKLEPIDGDYEHMEGCFSGFEQEESEQPSTSSAPRKLVQQRDRLLENLYQSNRHPSMEDINSLLDFSGDQRSIEAIFGFFERRRNDDNEMCTGDDACSSLRRYLEMELHPHGPLLEPPEIRCRMIKMFEKHWAKYRYVFRDLHSYMFSDALGLPPKYIRQRFEHFKERKNQQQKKQQEEADRAFRERHKPPKPHKPKPKSQYSKFEDETMEKAYMRTVKMNPSSYESRDLLESISISLRMSLIKVHEWFNNRKFVDSIIDQTWRTFSVNDEKRLHSTFLQNPQPTDEQYCYLAKELRAPVKEVMNWFKLKQMNEEREEEALKFEYKLDALTQESIDLFTTIVDGTTVVSVAKRRLLALELDVPYETLGRWIFYYRNREEKSRKSPKLEDDDDPPPRLAKMPRLEMNEPDNEEDIKLEPLDS”, the “soluble on expression in E. coli” value is listed as “not soluble”.

For the sequence “MPIPNNPGAGENAFDPVFVNDDDGYDLDSFMIPAHYKKYLTKVLVPNGVIKNRIEKLAYDIKKVYNNEEFHILCLLKGSRGFFTALLKHLSRIHNYSAVETSKPLFGEHYVRVKSYCNDQSTGTLEIVSEDLSCLKGKHVLIVEDIIDTGKTLVKFCEYLKKFEIKTVAIACLFIKRTPLWNGFKADFVGFSIPDHFVVGYSLDYNEIFRDLDHCCLVNDEGKKKYKATSL”, the “soluble on expression in E. coli” value is recorded as “soluble”.
